According to PMC4598862, “Proteasome Activation is Mediated via a Functional Switch of the Rpt6 C-terminal Tail Following Chaperone-dependent Assembly” (Scientific Reports, 2015):

Tests used:
α3-T81C-HA6 = target: T1, α3-T81C-HA6 (S. cerevisiae, UniProt P23638 1-258, T81C); test: cross-linking; proteasomes immunoprecipitated from yeast lysate on HA-agarose via the 6xHA tag of the α subunit, 1 mM ATP; engineered cysteine pair cross-linked with 0.1 mM BMOE, 1 h at 4 °C; SDS-PAGE, immunoblot for the Rpt protein and HA; wild-type and nas6Δ cells (no influence of Nas6); Rpt3-α2 also in rpt6-Δ1 cells (decreased); details: partners not purified
T1 construct: CP subunit α3, entire open reading frame with the cysteine substitution; also called α3^HA; source: expressed from the chromosomal locus in S. cerevisiae, immunoprecipitated from lysate on HA-agarose beads; not shown: 6xHA, C-terminal, kept
T1 sequence (looked up): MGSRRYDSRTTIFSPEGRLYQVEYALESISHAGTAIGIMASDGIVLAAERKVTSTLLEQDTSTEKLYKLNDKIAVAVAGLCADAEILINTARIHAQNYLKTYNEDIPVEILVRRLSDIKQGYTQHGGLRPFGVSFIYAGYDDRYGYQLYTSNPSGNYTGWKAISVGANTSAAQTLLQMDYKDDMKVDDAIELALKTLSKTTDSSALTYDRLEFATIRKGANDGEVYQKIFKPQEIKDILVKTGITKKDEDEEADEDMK

[1] = target: α2-A79C-HA6 (S. cerevisiae) (UniProt P23639); test: cross-linking; as a8 but with 2 mM ADP (0.5 mM ADP in the washes)

B1: Rpt6-K405C (natural protein, S. cerevisiae, UniProt Q01939 1-405, looked up)
chain: MTAAVTSSNIVLETHESGIKPYFEQKIQETELKIRSKTENVRRLEAQRNALNDKVRFIKDELRLLQEPGSYVGEVIKIVSDKKVLVKVQPEGKYIVDVAKDINVKDLKASQRVCLRSDSYMLHKVLENKADPLVSLMMVEKVPDSTYDMVGGLTKQIKEIKEVIELPVKHPELFESLGIAQPKGVILYGPPGTGKTLLARAVAHHTDCKFIRVSGAELVQKYIGEGSRMVRELFVMAREHAPSIIFMDEIDSIGSTRVEGSGGGDSEVQRTMLELLNQLDGFETSKNIKIIMATNRLDILDPALLRPGRIDRKIEFPPPSVAARAEILRIHSRKMNLTRGINLRKVAEKMNGCSGADVKGVCTEAGMYALRERRIHVTQEDFELAVGKVMNKNQETAISVAKLFC
notes: RP base ATPase Rpt6; K405 is the last residue of Rpt6; source: expressed from the chromosomal locus in S. cerevisiae, in proteasomes immunoprecipitated from lysate via α3-HA6
percent decrease of the crosslink ratio (ATP) relative to the Rpt3-α2^HA ratio (ATP) (α3-T81C-HA6): 43.6%

B2: Rpt3-K428C (natural protein)
chain: MEELGIVTPVEKAVEEKPAVKSYASLLAQLNGTVNNNSALSNVNSDIYFKLKKLEKEYELLTLQEDYIKDEQRHLKRELKRAQEEVKRIQSVPLVIGQFLEPIDQNTGIVSSTTGMSYVVRILSTLDRELLKPSMSVALHRHSNALVDILPPDSDSSISVMGENEKPDVTYADVGGLDMQKQEIREAVELPLVQADLYEQIGIDPPRGVLLYGPPGTGKTMLVKAVANSTKAAFIRVNGSEFVHKYLGEGPRMVRDVFRLARENAPSIIFIDEVDSIATKRFDAQTGSDREVQRILIELLTQMDGFDQSTNVKVIMATNRADTLDPALLRPGRLDRKIEFPSLRDRRERRLIFGTIASKMSLAPEADLDSLIIRNDSLSGAVIAAIMQEAGLRAVRKNRYVILQSDLEEAYATQVKTDNTVDKFDFYC
percent decrease of crosslinking under ADP relative to ATP [1]: 90%
